Sequences and labels used below:
B1: OMT35 (clone 35) (antibody, V domains shown)
VH: QVQLQQSGPGLVKPSQTLSLTCAISGDSVSSNSAAWNWIRQSPSSGLEWLGRTYYRSKWFDDYAVSVKGRITINPDTSKNQFSLQLKFVIPEDTAVYYCARRVHWGGPFDYWGQGTLVTVSS
VL: DIQLTQSPSFLSASVGDRVTITCRASQGISSYLAWYQQRPGKAPKVLISVASTLQSGVPSRFSGSGSGTDFTLTISSLQPEDFATYYCQQLTGYPFTFGPGTKVDIK
B2: OMT24 (clone 24) (antibody, V domains shown)
VH: QVQLVQSGSELKKPGASVKVSCKASGYTFTTYVMNWVRQAPGQGLEWMGWINTNTGNPTYAQGFTGRFVFSVDTSVSTAYLQISSLKAEDTAVYYCARDRVLLWFGAGYYHYGMDVWGQGTTVTVSS
VL: SSELTQDPAVSVALGQTVRITCQGDSLRSYYTSWYQQKPGQAPVFVIYGKNNRPSGIPDRFSGSSSGNTASLTITGAQAEDEADYYCNSRDSSGNHVVFGGGTKLTVL
B3: OMT8 (clone 8) (antibody, V domains shown)
VH: QVQLQESGPGLVKPSQTLSLTCTVSGGSISSGGYYWSWIRQHPGKGLEWIGYIHYIGSTYQNPSLKSRVTMSVDTSKNQFSLRLTSVTAADTAVYYCARESGDTAMVFDYWGQGTQVTVSS
VL: QSALTQPPSASGSPGQSVTISCTGTSSDVGGYNYVSWYQQHPGKAPKVMIYEVSTRPSGVPDRFSGSKSGNTASLTVSGLQAEDEADYYCSSYAGNNNFVFGTGTKVTVL
B4: OMT30 (clone 30) (antibody, V domains shown)
VH: QVQLVESGGGVVQPGRSLRLSCAASGFTFSSYGIHWVRQAPGKGLEWVAVIWYDGSNKYYADSVKGRFTISRDNSKNTLYLQMNSLRAEDTAVYYCARRGDSSSWHFDYWGQGTLVTVSS
VL: QSALTQPASVSGSPGQSITISCTGTSSDVGRHNLVSWYQQHPGKVPKVMIYEVTKRPAGVSNRFSGSKSGNTASLTISGLQAEDEADYYCCSYAGSSTYVFGTGTRVTVL
B5: OMT36 (clone 36) (antibody, V domains shown)
VH: QVQLVQSGAEVKKPGASVKVSCKASGYTFTNYDINWVRQATGQGLEWMGWMNPNSGNTDYVQKFQGRVAMTRITSISTAYLELSSLRSDDTAVYYCARGLHSGDYYSYGMDVWGQGTTVTVSS
VL: SYELTQPPSVSVSPGQTARITCSGDALPNQYAYWYQQKPGQAPVLVIYKDSERPSGIPERFSGSSSGTTVTLTISGVQAEDEADYYCQSADSSGTVVFGGGTKLSVL

The text below walks through data of US20260347495 (published 2026).

lactotransferrin, sequence (P02788 20-710): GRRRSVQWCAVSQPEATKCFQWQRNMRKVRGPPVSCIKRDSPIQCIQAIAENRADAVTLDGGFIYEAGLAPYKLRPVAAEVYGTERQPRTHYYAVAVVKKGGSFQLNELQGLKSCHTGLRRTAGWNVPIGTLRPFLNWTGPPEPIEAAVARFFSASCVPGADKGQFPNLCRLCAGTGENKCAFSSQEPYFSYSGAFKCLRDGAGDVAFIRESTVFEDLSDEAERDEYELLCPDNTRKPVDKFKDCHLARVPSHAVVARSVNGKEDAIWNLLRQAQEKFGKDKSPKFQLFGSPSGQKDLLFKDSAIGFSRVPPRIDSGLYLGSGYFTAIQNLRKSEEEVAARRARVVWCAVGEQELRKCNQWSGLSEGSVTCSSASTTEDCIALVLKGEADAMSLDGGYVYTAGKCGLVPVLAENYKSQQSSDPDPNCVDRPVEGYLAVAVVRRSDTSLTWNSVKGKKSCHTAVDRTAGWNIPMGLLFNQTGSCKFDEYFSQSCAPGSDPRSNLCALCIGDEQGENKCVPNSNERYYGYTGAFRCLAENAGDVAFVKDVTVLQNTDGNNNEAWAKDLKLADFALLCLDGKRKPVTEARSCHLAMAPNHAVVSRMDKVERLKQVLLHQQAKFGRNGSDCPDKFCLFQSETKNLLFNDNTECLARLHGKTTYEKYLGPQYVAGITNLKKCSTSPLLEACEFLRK

One experiment addresses lactotransferrin (human, UniProt P02788). In words: ELISA.
For B1, the binding result is listed as “no binding”.
On to B2, for which the binding result is “no binding”.
As for B3, the binding result is reported as “no binding”.
In the case of B4, the binding result is listed as “no binding”.
In the case of B5, the binding result is on record as “no binding”.

The target in a further experiment is transferrin (human, UniProt P02787). Kind of experiment: ELISA.
transferrin, sequence (P02787 20-698): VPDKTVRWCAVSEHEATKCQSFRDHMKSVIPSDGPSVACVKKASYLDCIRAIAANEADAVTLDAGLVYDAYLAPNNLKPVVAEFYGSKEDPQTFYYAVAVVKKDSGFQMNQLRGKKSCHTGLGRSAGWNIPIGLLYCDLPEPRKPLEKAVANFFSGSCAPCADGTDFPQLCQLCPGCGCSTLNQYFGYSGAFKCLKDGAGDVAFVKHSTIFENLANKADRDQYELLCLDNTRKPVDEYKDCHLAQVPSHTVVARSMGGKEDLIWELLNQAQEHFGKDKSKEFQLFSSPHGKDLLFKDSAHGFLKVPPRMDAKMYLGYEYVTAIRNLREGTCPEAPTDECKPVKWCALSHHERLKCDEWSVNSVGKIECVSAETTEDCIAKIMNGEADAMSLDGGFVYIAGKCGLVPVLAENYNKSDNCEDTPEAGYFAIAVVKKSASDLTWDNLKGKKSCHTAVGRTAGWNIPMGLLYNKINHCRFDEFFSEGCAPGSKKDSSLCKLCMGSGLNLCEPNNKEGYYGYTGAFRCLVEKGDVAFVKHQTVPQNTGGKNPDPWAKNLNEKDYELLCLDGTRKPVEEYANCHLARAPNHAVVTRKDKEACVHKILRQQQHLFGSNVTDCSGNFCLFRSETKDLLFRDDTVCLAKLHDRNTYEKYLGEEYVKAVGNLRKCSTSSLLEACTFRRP
B1: the binding result is given as “no binding”.
For the molecule B2, the binding result is given as “no binding”.
As to B3, the binding result was “no binding”.
Same read-out and setting: the same measure for B4: “no binding”.
With B5, the binding result was “no binding”.
